Data from patent US5218092A, “Modified granulocyte-colony stimulating factor polypeptide with added carbohydrate chains” (Kyowa Hakko Kogyo Co., Ltd., priority 1988, dated 1993).

Key:
[1] = cited from earlier work; for site of clearance: sialic acid-containing or after sialic acid elimination
fibrin = conditions: cited from earlier work
plasminogen in blood = conditions: in vivo; cited from earlier work
thrombin = conditions: cited from earlier work
plasmin = conditions: cited from earlier work
[2] = no carbohydrate chain; cited from earlier work
[3] = no carbohydrate chain; cited from earlier work; remark: listed apart in the source
[4] = rat plasma and rat perfusate; cited from earlier work
chymotrypsin = experiment: proteolysis susceptibility of hG-CSF and hG-CSF[ND28] produced in Escherichia coli; assay type: in vitro ADME
Excerpt: Analysis of hG-CSF and the hG-CSF derivative hG-CSF[ND 28] […] On the basis of the above findings, it is estimated that, in hG-CSF[ND28], a portion close to the N terminus and a portion in the vicinity of the 144th (from the N terminus) amino acid are found on the polypeptide surface. Therefore, an attempt was made to add a carbohydrate chain to hG-CSF[ND28] on the 6th or 145th (from the N terminus) amino acid residue thereof. An hG-CSF[ND28] derivative which has a carbohydrate chain addition site on the 6th (from the N terminus) amino acid residue is hG-CSF[ND28N6] and a derivative which has a carbohydrate chain addition site on the 145th (from the N terminus) amino acid residue is hG-CSF[ND28N145]. In these cases, it is expected that the carbohydrate chain addition can result in development of protease resistance. Retardation of blood clearance can also be expected as a result of stabilization of the polypeptide.

sialic acid-containing hGM-CSF: sialic acid-containing hGM-CSF
site of clearance [1]: undergoes clearance in the kidney

Urokinase
affinity for fibrin (fibrin): no affinity for fibrin
systemic hyperfibrinolysis / bleeding tendency (plasminogen in blood): causing systemic hyperfibrinolysis and leading to a bleeding tendency
conversion under the action of thrombin (thrombin): converted to an inactive form upon exposure to a protease called thrombin

streptokinase: thrombolytic agent
affinity for fibrin (fibrin): no affinity for fibrin
systemic hyperfibrinolysis / bleeding tendency (plasminogen in blood): causing systemic hyperfibrinolysis and leading to a bleeding tendency

t-PA: tissue plasminogen activator (t-PA)
conversion under the action of plasmin (plasmin): Plasmin converts the single-chainform to the double-chain form
affinity for fibrin (fibrin): have affinity for fibrin

human erythropoietin: human erythropoietin produced in Escherichia coli or enzymatically treated for carbohydrate chain elimination
activity in vitro [2]: shows activity in vitro
activity in vivo [3]: shows decreased activity in vivo
clearance [3]: undergoes rapid clearance

hGM-CSF: human granulocyte macrophage colony stimulating factor (hGM-CSF)
rate of clearance from the rat plasma ([1]; dependence on number of carbohydrate chains): the rate of clearance from the rat plasma increases in proportion to the reduction in the number of carbohydrate chains

hGM-CSF after sialic acid elimination: hGM-CSF after sialic acid elimination
rate of clearance ([1]; after sialic acid elimination): increased rate of clearance
site of clearance [1]: undergoes clearance in the liver

B1: α1 -acid glycoproteins: α1 -acid glycoproteins differing in carbohydrate structure as biosynthesized in a rat liver primary culture system (protein, UniProt P02764 19-205, looked up)
Alpha-1-acid glycoprotein: QNPEPANITLGIPITNETLKWLSDKWFYMGAAFRDPVFKQAVQTIQTEYFYLTPNLINDTIELREFQTTDDQCVYNFTHLGVQRENGTLSKCAGAVKIFAHLIVLKKHGTFMLAFNLTDENRGLSFYAKKPDLSPELRKIFQQAVKDVGMDESEIVFVDWTKDKCSEQQKQQLELEKETKKETKKDP
modifications: glycoform mixture
notes: α1 -acid glycoproteins differing in carbohydrate structure as biosynthesized in a rat liver primary culture system
order of clearance rates [4]: high mannose type>carbohydrate chain-deficient type>hybrid type>complex type (natural form)

B2: hG-CSF: human granulocyte colony stimulating factor (hG-CSF) (protein, UniProt P09919 31-207, looked up)
Granulocyte …: TPLGPASSLPQSFLLKCLEQVRKIQGDGAALQEKLVSECATYKLCHPEELVLLGHSLGIPWAPLSSCPSQALQLAGCLSQLHSGLFLYQGLLQALEGISPELGPTLDTLQLDVADFATTIWQQMEELGMAPALQPTQGAMPAFASAFQRRAGGVLVASHLQSFLEVSYRVLRHLAQP
susceptibility to proteolysis by chymotrypsin behind 144th amino acid Phe (chymotrypsin): susceptible to proteolysis by chymotrypsin
